# Experimental data as given in patent US20220372138A1 (IOMX THERAPEUTICS, published 2022).
# Residue numbers refer to the chain shown, from its start.
# T1: extracellular domain (ECD) of human IGSF11 (VSIG3), recombinant (human, UniProt Q5DX21 23-241)
# T1 construct: biotinylated where captured on streptavidin; tags of the reagent not always stated; also called IGSF11 (ECD domain); ECD-IGSF11
# T1 sequence: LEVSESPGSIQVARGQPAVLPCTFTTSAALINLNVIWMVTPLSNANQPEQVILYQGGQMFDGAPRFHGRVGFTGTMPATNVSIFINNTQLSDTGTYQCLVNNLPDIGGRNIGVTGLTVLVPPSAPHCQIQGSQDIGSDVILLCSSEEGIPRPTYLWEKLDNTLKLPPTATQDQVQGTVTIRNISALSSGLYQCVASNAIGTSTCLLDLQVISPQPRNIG
# T2: human IGSF11 (VSIG3) ECD, His-tagged (human, UniProt Q5DX21 23-241)
# T2 construct: in part bought (SinoBiological 13094-H08H); also called HIS-IGSF11; IGSF11-HIS; not shown: His tag
# T2 sequence: T1 sequence
# T3: human IGSF11 (VSIG3) expressed on cells (human, UniProt Q5DX21 23-431)
# T3 sequence: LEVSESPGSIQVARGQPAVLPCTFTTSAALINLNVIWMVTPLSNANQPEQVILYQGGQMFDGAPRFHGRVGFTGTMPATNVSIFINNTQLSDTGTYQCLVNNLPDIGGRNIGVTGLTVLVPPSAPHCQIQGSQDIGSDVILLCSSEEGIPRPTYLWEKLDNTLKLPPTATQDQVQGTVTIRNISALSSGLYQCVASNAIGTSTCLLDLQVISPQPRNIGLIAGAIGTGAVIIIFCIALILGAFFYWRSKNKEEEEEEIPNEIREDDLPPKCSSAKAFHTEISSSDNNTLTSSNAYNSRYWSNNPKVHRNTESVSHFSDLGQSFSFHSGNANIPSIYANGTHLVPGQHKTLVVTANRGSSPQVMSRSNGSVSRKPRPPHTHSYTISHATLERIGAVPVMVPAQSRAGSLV
# T4: full-length ECD of human IGSF11 fused to murine Fc (human, UniProt Q5DX21 23-241)
# T4 construct: also called Fc-fusion IGSF11 ECD; not shown: murine Fc
# T4 sequence: T1 sequence
# T5: IgC2 domain of human IGSF11 fused to murine IgG2a Fc (human, UniProt Q5DX21 137-241)
# T5 construct: not shown: murine IgG2a Fc-region
# T5 sequence: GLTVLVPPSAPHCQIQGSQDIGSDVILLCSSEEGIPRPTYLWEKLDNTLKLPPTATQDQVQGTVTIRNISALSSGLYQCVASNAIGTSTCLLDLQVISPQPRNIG
# T6: IgV domain of human IGSF11 fused to murine IgG2a Fc (human, UniProt Q5DX21 23-143)
# T6 construct: not shown: murine IgG2a Fc-region
# T6 sequence: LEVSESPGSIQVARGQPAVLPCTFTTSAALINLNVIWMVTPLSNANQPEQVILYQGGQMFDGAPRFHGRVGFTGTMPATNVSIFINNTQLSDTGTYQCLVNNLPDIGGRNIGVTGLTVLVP
# B1: A-012 (IgG1 format) (antibody, V domains shown)
# VH: EVQLLESGGGLIQPGGSLRLSCAVSGFTVSSNYMSWVRQAPGKGLEWVSVIYSGGSTYYADSVKGRFTISRDNSKNTLYLQMNSLRAEDTAVYYCARGNPYYYGDLQVNFDYWGQGTLVTVSS
# VL: QAVVTQEPSLTVSPGGTVTLTCASSTGAVTSGYYPNWFQQKPGQAPRALIYSTSNKHSWTPARFSGSLLGGKAALTLSGVQPEDEAEYYCLLYYGGAWVFGGGTKLTVL
# notes: human IgG1 format
# B2: A-011 (IgG1 format) (antibody, V domains shown)
# VH: QVQLVESGGGVVQPGRSLRLSCAASGFTFSSYAMHWVRQAPGKGLEWVAVISYDGSNKYYADSVKGRFTISRDNSKNTLYLQMNSLRAEDTAVYYCAEGGALNYYGMDVWGQGTTVTVSS
# VL: SSELTQDPGVSVALGQTVRITCQGDSLRHFYATWYQQKPGQAPILVIYGKNNRPSGIPDRFSGSSSEDTASLTITGAQAEDEADYYCQSRDPRNNHLIFGGGTKLIVL
# notes: human IgG1 format
# B3: A-026 (IgG1 format) (antibody, V domains shown)
# VH: QVQLQESGPGLVKPSQTLSLTCTVSGGSISSGGYYWSWIRQHPGKGLEWIGYIYYSGSTYYNPSLKSRVTISVDTSKNQFSLKLSSVTAADTAVYYCASWSLGTSNHGWFDPWGQGTLVTVSS
# VL: QSVLTQPPSASGTPGQRVTISCSGSSSNIGSNTVNWYQQLPGTAPKLLISDNNNRPSGVPDRFSGSKSGTSASLAITGLQAEDEADYYCQSYDSNLSGWVFGGGTKLTVL
# notes: human IgG1 format
# B4: A-004 (IgG1 format) (antibody, V domains shown)
# VH: EVQLVESGGGLVKPGGSLRLSCAASGFTFSSYSMNWVRQAPGKGLEWVSSISSSSSYIYYADSVKGRFTISRDNAKNSLYLQMNSLRAEDTAVYYCARGQLLWFGESALIDAFDIWGQGTMVTVSS
# VL: EIVLTQSPSSLSASVGDRVTITCRASQSISSYLNWYQLKPGKAPKLLIYAASILQSGVPSRFSGSGSGTDFTLTISSLQPEDFAAYYCQQSYSTPRTFGQGTKLEIK
# notes: human IgG1 format
# B5: B-001 (chain-swapped IgG1) (antibody, V domains shown)
# VH: B1 VH
# VL: B1 VL with G32A, E87D
# notes: human IgG1 format; also called B1
# B6: B-003 (chain-swapped IgG1) (antibody, V domains shown)
# VH: B1 VH
# VL: B1 VL with G16E, K41R, H57D
# notes: human IgG1 format; also called B3
# B7: B-005 (chain-swapped IgG1) (antibody, V domains shown)
# VH: B1 VH
# VL: B1 VL with L20P, A23G, Y33N, Y34L, F64I
# notes: human IgG1 format; also called B5
# B8: B-002 (chain-swapped IgG1) (antibody, V domains shown)
# VH: B1 VH with L5V, V24A
# VL: B1 VL
# notes: human IgG1 format; also called B2
# B9: A-010 (IgG1 format) (antibody, V domains shown)
# VH: QVQLVQSGAEVKKPGASVKVSCKASGYTFTSYGISWVRQAPGQGLEWMGWISAYNGNTNYAQKLQGRVTMTTDTSTSTAYMELRSLRSDDTAVYYCARVPAWSGQFDYWGQGTLVTVSS
# VL: QSALTQPASVSGSPGQSITISCTGSSSDVGGYNYVSWYQQYPGKAPKLMIYDVRSRPSGVSNRFSGSKSGNTASLTISGLQAEDEADYYCTSYTSSNTLVIFGGGTKVTVL
# notes: human IgG1 format
# Target: T1, extracellular domain (ECD) of human …
# Assay: SPR
row,Binder,Kd [nM]
1,B1,250 to 500
2,B2,250 to 500
3,B3,> 500
4,B4,100 to 250

# Target: T2, human IGSF11 (VSIG3) ECD, His-tagged
# Assay: blocking ELISA: VSIR-Fc immobilised, IgG dilution series pre-incubated with 200 nM IGSF11 ECD-His, bound IGSF11 detected with anti-His-HRP
row,Binder,IC50 (read off the curve) [nM]
1,B1,~2
2,B5,~2
3,B6,~2
4,B7,~2

# Target: T3, human IGSF11 (VSIG3) expressed on cells
# Assay: IgG1 FACS DMS 273
row,Binder,EC50 [nM]
1,B8,> 50
2,B1,10 to 50

# Target: T3, human IGSF11 (VSIG3) expressed on cells
# Assay: FACS, DMS 273 cells with scrambled control siRNA (SC)
row,Binder,% binding (FACS heat-map) [%]
1,B8,80.1
2,B1,75.8
3,B2,6.95
4,B3,64.4

# Target: T2, human IGSF11 (VSIG3) ECD, His-tagged
# Assay: ELISA: IGSF11-HIS coated, IgG1 dilution series, anti-human antibody-HRP, TMB
row,Binder,EC50 (read off the curve) [nM]
1,B8,~0.01

# Target: T3, human IGSF11 (VSIG3) expressed on cells
# Assay: FACS, DMS 273 cells with IGSF11 siRNA (KD, knock-down control)
row,Binder,% binding (FACS heat-map) [%]
1,B8,8.68
2,B1,4.77
3,B2,3.4
4,B3,3.81

# Target: T3, human IGSF11 (VSIG3) expressed on cells
# Assay: IgG1 FACS HEK-OE
row,Binder,EC50 [nM]
1,B8,10 to 50
2,B1,10 to 50
3,B5,10 to 50
4,B2,> 50
5,B3,> 50

# Target: T2, human IGSF11 (VSIG3) ECD, His-tagged
# Assay: IgG1 ELISA EC50 0.02-0.05 nM
row,Binder,EC50 [nM]
1,B1,0.02 to 0.05
2,B3,0.02 to 0.05

# Target: T1, extracellular domain (ECD) of human …
# Assay: BLI
row,Binder,Kd [nM]
1,B1,1 to 10
2,B2,10 to 20
3,B3,20 to 30

# Target: T2, human IGSF11 (VSIG3) ECD, His-tagged
# Assay: blocking ELISA: VSIR-Fc immobilised, IgG dilution series pre-incubated with 200 nM IGSF11 ECD-His, bound IGSF11 detected with anti-His-HRP
# Remark: another data set of the same source
row,Binder,IC50 (read off the curve) [nM]
1,B8,4 to 5

# Target: T2, human IGSF11 (VSIG3) ECD, His-tagged
# Assay: ELISA: IGSF11-HIS coated, IgG1 dilution series, anti-human antibody-HRP, TMB
# Remark: another data set of the same source
row,Binder,EC50 (read off the curve) [nM]
1,B1,~0.008
2,B6,~0.008
3,B7,~0.01

# Target: T1, extracellular domain (ECD) of human …
# Assay: SPR
# Remark: another data set of the same source
row,Binder,Kd [nM]
1,B8,100 to 250
2,B5,250 to 500

# Target: T3, human IGSF11 (VSIG3) expressed on cells
# Assay: FACS, M579-A2-luc cells with IGSF11 siRNA (KD, knock-down control)
row,Binder,% binding (FACS heat-map) [%]
1,B8,2.77
2,B1,2.35
3,B2,2.41
4,B3,2.01

# Target: T4, full-length ECD of human IGSF11 fused …
# Assay: IgG ELISA
# Method: (§1) Binding of IgG antibodies to each of the full-length ECD of IGSF11, to the IgV domain of IGSF11 and to the IgC2 domain of IGSF11, was tested in the ELISA assay as follows: briefly, recombinant domains of Fc-fusion IGSF11 proteins were coated at 2 ug/mL on a 384-well Maxisorp plate. The surface was blocked with 2% (w/v) skim milk powder in PBST. […] After removing all unbound antibodies by 3 wash cycles with PBST, bound IgG ABPs were detected with a goat anti-human IgG antibody conjugated with horseradish peroxidase. After three wash cycles with PBST the ELISA was developed with TMB substrate.
row,Binder,EC50 [nM]
1,B2,< 1
2,B3,1 to 20
3,B4,1 to 20
4,B9,< 1

# Target: T5, IgC2 domain of human IGSF11 fused to …
# Assay: IgG ELISA
# Method: as §1
row,Binder,EC50 [nM]
1,B2,< 1
2,B3,1 to 20

# Target: T6, IgV domain of human IGSF11 fused to …
# Assay: IgG ELISA
# Method: as §1
row,Binder,EC50 [nM]
1,B4,1 to 20
2,B9,< 1

# Target: T3, human IGSF11 (VSIG3) expressed on cells
# Assay: FACS, M579-A2-luc cells with scrambled control siRNA (SC)
row,Binder,% binding (FACS heat-map) [%]
1,B8,70.7
2,B1,65.4
3,B2,2.05
4,B3,11.6

# Target: T2, human IGSF11 (VSIG3) ECD, His-tagged
# Assay: IgG1 ELISA EC50 <0.02 nM
row,Binder,EC50 [nM]
1,B2,< 0.02
2,B4,< 0.02
3,B9,< 0.02
